B1: FIXa-Y94F/K98T/Y177F (protein)
chain: YNSGKLEEFVQGNLERECMEEKCSFEEAREVFENTERTTEFWKQYVDGDQCESNPCLNGGSCKDDINSYECWCPFGFEGKNCELDVTCNIKNGRCEQFCKNSADNKVVCSCTEGYRLAENQKSCEPAVPFPCGRVSVSQTSKLTRAEAVFPDVDYVNSTEAETILDNITQSTQSFNDFTRVVGGEDAKPGQFPWQVVLNGKVDAFCGGSIVNEKWIVTAAHCVETGVKITVVAGEHNIEETEHTEQKRNVIRIIPHHNFNAAINTYNHDIALLELDEPLVLNSYVTPICIADKEYTNIFLKFGSGYVSGWGRVFHKGRSALVLQYLRVPLVDRATCLRSTKFTIFNNMFCAGFHEGGRDSCQGDSGGPHVTEVEGTSFLTGIISWGEECAMKGKYGIYTKVSRYVNWIKEKTKLT
B2: FIXa-Y94F/K98T/Y177F/I213V/E219G (protein)
chain: YNSGKLEEFVQGNLERECMEEKCSFEEAREVFENTERTTEFWKQYVDGDQCESNPCLNGGSCKDDINSYECWCPFGFEGKNCELDVTCNIKNGRCEQFCKNSADNKVVCSCTEGYRLAENQKSCEPAVPFPCGRVSVSQTSKLTRAEAVFPDVDYVNSTEAETILDNITQSTQSFNDFTRVVGGEDAKPGQFPWQVVLNGKVDAFCGGSIVNEKWIVTAAHCVETGVKITVVAGEHNIEETEHTEQKRNVIRIIPHHNFNAAINTYNHDIALLELDEPLVLNSYVTPICIADKEYTNIFLKFGSGYVSGWGRVFHKGRSALVLQYLRVPLVDRATCLRSTKFTIFNNMFCAGFHEGGRDSCQGDSGGPHVTEVEGTSFLTGIVSWGEGCAMKGKYGIYTKVSRYVNWIKEKTKLT

Target: factor X (FX), P00742
Sequence (P00742 whole entry, looked up): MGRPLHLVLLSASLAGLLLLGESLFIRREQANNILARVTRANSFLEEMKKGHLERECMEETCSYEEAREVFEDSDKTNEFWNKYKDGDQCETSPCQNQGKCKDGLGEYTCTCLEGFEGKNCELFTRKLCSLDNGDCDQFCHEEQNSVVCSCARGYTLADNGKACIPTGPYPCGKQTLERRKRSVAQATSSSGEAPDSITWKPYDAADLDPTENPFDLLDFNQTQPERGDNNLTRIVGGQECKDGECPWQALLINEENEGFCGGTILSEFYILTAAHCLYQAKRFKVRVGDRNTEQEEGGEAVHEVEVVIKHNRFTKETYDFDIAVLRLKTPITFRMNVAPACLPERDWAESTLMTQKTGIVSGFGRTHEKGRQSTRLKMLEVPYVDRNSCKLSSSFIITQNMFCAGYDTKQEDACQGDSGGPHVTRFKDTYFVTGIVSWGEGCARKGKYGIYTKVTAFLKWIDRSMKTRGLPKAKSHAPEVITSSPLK

| Protein | aPTT in FIX-depleted plasma: pdFIXa equivalent activity given for 0.5 µg/mL of FIXa protein (µg/mL pdFIXa activity) |
| --- | --- |
| B1 | 1 |
| B2 | 14.4 |
